The test system of one data set is actin. The conditions noted are these: Shu et al.; cited from earlier work.
The subject of data set [1] is DNA (salmon sperm DNA from Sigma). The data set can be described thus: Effect of K+ and Mg2+ on DNAse activity: decrease in viscosity of a standardised DNA digest (capillary viscosimeter). It counts as biochemical. The protocol: The viscosity of DNA and DNA/actin solutions was measured with a calibrated capillary viscosimeter (Schott Geräte, Hofheim, Germany) equipped with an automated apparatus (Lauda, Köningshofen, Germany). The capillary viscosimeter was placed in a water bath (20.00° C.±0.05° C.) and the outflow times (t in s) were determined automatically. The viscosity (η) of the solutions is related to t by: [formula] where k and B are known constants. The effect of Mg^2+ and K^+ ions on the activity of DNAse (measured as decrease in viscosity) was determined by changing the Mg^2+ and K^+ concentration in a standardised DNA digest. DNA (salmon sperm DNA from Sigma) was digested (10 μ[…], 2,3 mg/ml DNA, 70 mM NaCl, and 3 mM CaCl2, pH 7.0) in order to determine the change in viscosity of the DNA solution.

In data set [2] the test system is DNA in the presence of rabbit skeletal actin. Kind of data set: Influence of actin polymerisation on DNAse activity: decrease in viscosity of DNA/actin solutions. It counts as biochemical. The protocol:
The viscosity of DNA and DNA/actin solutions was measured with a calibrated capillary viscosimeter (Schott Geräte, Hofheim, Germany) equipped with an automated apparatus (Lauda, Köningshofen, Germany). The capillary viscosimeter was placed in a water bath (20.00° C.±0.05° C.) and the outflow times (t in s) were determined automatically. The viscosity (η) of the solutions is related to t by: […] Biol. Chem. (1971) 246: 4866-4871) (6,4 μg/ml […], 1.5 mg DNA/ml and 1.1 mg actin/ml 70 mM NaCl, 3 mM CaCl2, 0.35 mM ATP, 3.2 mM TRIS/HCl, 0.13 mM DTT, and 0.006% NaN3, pH 7,0). K^+ and Mg^2+ were supplied as K2HPO4 and MgCl2 respectively.

Setting [3] is: DNA/actin solution 1: K+ 14.0 mM, Mg2+ 0.90 mM.
The mark [4] stands for this setting: DNA/actin solution 2: K+ 26.0 mM, Mg2+ 0.90 mM.
Setting [5] is: DNA/actin solution 3: K+ 26.0 mM, Mg2+ 2.70 mM.

For `O=P([O-])([O-])O.[K+].[K+]` [K+, potassium hydrogenophosphate], the “concentration giving maximal actin polymerisation” value with actin is on record as 200 mM.
For the molecule `[Cl-].[Cl-].[Mg+2]` [Mg^2+, magnesium chloride], the “concentration giving maximal actin polymerisation” value in the data set on actin is listed as 2 mM.

B1: rhDNAse I: Recombinant human DNAse I, commercially available under the trade name Pulmozyme, also designated dornase alpha (protein, UniProt P24855 23-282, looked up)
Deoxyribonuclease-1: LKIAAFNIQTFGETKMSNATLVSYIVQILSRYDIALVQEVRDSHLTAVGKLLDNLNQDAPDTYHYVVSEPLGRNSYKERYLFVYRPDQVSAVDSYYYDDGCEPCGNDTFNREPAIVRFFSRFTEVREFAIVPLHAAPGDAVAEIDALYDVYLDVQEKWGLEDVMLMGDFNAGCSYVRPSQWSSIRLWTSPTFQWLIPDSADTTATPTHCAYDRIVVAGMLLRGAVVPDSALPFNFQAAYGLSDQLAQAISDHYPVEVMLK
modifications: dornase alfa
notes: Recombinant human DNAse I, commercially available under the trade name Pulmozyme, also designated dornase alpha
In the case of B1, the “decrease in viscosity at t = 10 minutes” value in data set [1] (DNA solution 1: K+ 14.0 mM, Mg2+ 1.65 mM) was determined as 97%; in data set [1] (DNA solution 2: K+ 26.0 mM, Mg2+ 1.65 mM), 97%; in data set [1] (DNA solution 3: K+ 20.0 mM, Mg2+ 0.90 mM), 97%; in data set [1] (DNA solution 4: K+ 20.0 mM, Mg2+ 2.70 mM), 97%. Besides, the “η at t = 10 minutes” value is recorded as 1.1 mm^2/s in data set [1] (DNA solution 1: K+ 14.0 mM, Mg2+ 1.65 mM, η 31.5 at t = 0); 1.1 mm^2/s in data set [1] (DNA solution 2: K+ 26.0 mM, Mg2+ 1.65 mM, η 31.5 at t = 0); 1.1 mm^2/s in data set [1] (DNA solution 3: K+ 20.0 mM, Mg2+ 0.90 mM, η 33.9 at t = 0); 1.1 mm^2/s in data set [1] (DNA solution 4: K+ 20.0 mM, Mg2+ 2.70 mM, η 33.9 at t = 0). The “viscosity η of the DNA solution after digestion” value in data set [1] (all tested K+ and Mg2+ concentrations, value is near the viscosity of water) was approximately 1 mm^2/s. Also, the “decrease in viscosity at t = 10 min” value in data set [2] (setting [3]) turned out to be 32%; in data set [2] (setting [5]), 58%. In addition, the “decrease in viscosity at t = 20 min” value in data set [2] (setting [3]) turned out to be 34%; in data set [2] (setting [5]) it was 59%. Further, the “decrease in viscosity at t = 30 min” value is reported as 40% in data set [2] (setting [3]), 46% in data set [2] (setting [4]) and 61% in data set [2] (setting [5]). In addition, the entries for the “η at t = 20 min” value in data set [2] (setting [3]) and in data set [2] (setting [5]) were 9.4 mm2/s and 5.8 mm2/s, respectively. In addition, the figures for the “η at t = 30 min” value in data set [2] (setting [3]), in data set [2] (setting [4]) and in data set [2] (setting [5]) were 8.6 mm2/s, 7.7 mm2/s and 5.5 mm2/s, respectively. The “η at t = 10 min” value in data set [2] (DNA/actin solution 1: K+ 14.0 mM, Mg2+ 0.90 mM, η 14.3 at t = 0) was found to be 9.8 mm2/s; in data set [2] (setting [5]), 6.1 mm2/s. Further, the “DNAse activity in DNA/actin solutions” value in data set [2] (at high levels of Mg^2+ and K^+) is reported as “highest”.

The record behind these values is patent US7432308B2, “Therapeutic compositions for the treatment of a respiratory tract disease” (Universiteit Gent, priority 2001, dated 2008).
